Experimental data from publication PMC9352680, “A comprehensive thermodynamic model for RNA binding by the Saccharomyces cerevisiae Pumilio protein PUF4”.

T1: PUF4 RNA-binding domain (Saccharomyces cerevisiae, UniProt P25339 537-888)
T1 sequence: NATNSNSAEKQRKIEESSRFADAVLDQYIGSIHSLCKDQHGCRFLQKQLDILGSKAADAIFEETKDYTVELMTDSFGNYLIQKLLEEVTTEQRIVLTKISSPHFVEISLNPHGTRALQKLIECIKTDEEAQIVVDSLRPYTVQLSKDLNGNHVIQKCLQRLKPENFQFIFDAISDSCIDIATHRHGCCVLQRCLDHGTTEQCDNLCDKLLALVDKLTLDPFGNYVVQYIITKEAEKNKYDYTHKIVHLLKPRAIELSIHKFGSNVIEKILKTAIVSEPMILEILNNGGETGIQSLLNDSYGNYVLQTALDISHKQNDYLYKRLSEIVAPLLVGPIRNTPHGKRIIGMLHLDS


Biological target: T1, PUF4 RNA-binding domain
Assay: Mg; RNA-MaP; 20 mM Na-HEPES pH 7.4, 30 mM KOAc, 0.75 mM MgCl2, 0.1% Tween-20, 5% glycerol, 0.1 mg/mL BSA, 2 mM DTT; 25 C; 0.0125-409.6 nM protein
Conditions: tags: N-His6-TEV cleaved; C-SNAP kept, Cy3B-labelled; label: tethered on chip by stalled RNA polymerase

Row | Binder | Kd [nM]
1 | UCUCUUUGUCUCUUAUCUCUU (ssRNA) [Ib_S1_P4E.1_K4.1_C4.1_H4.1_[A4C]_A4.1_[A6C]_F4.1_T4.1] | 813
2 | UCUCUUCAUAUAUAUUACAUCUCUU (ssRNA) [Id_ii_S1_P4E.3_K4.2_C4.2_[T-1A]_H4.2_A4.1_F4.1_T4.2_[G10C]_[T11A]] | 27.8
3 | UCUCUUAAUAUAUAUUAGUUCUCUU (ssRNA) [Id_ii_S1_P4E.3_K4.2_C4.2_[C-2A]_[T-1A]_H4.2_A4.1_F4.1_T4.2] | 26.7
4 | UCUCUUACUAUAUAUUAUCUCUCUU (ssRNA) [Id_ii_S1_P4E.3_K4.2_C4.2_[C-2A]_[T-1C]_H4.2_A4.1_F4.1_T4.2_[G10T]_[T11C]] | 29.3
5 | UCUCUUAAUAUAUAUUACAUCUCUU (ssRNA) [Id_ii_S1_P4E.3_K4.2_C4.2_[C-2A]_[T-1A]_H4.2_A4.1_F4.1_T4.2_[G10C]_[T11A]] | 48.9
6 | UCUCUUCCUAUAUAUUAUAUCUCUU (ssRNA) [Id_ii_S1_P4E.3_K4.2_C4.2_[T-1C]_H4.2_A4.1_F4.1_T4.2_[G10T]_[T11A]] | 14.5
7 | UCUCUUCCUAUAUAUUAUGUCUCUU (ssRNA) [Id_ii_S1_P4E.3_K4.2_C4.2_[T-1C]_H4.2_A4.1_F4.1_T4.2_[G10T]_[T11G]] | 21.1
8 | UCUCUUUGUUUUUUAUCUCUU (ssRNA) [Ib_S1_P4E.1_K4.1_C4.1_H4.1_[A4T]_A4.1_[A6T]_F4.1_T4.1] | 100
9 | UCUCUUCAUAUAUAUUAGGUCUCUU (ssRNA) [Id_ii_S1_P4E.3_K4.2_C4.2_[T-1A]_H4.2_A4.1_F4.1_T4.2_[T11G]] | 18.2
10 | UCUCUUAAUAUAUAUUACGUCUCUU (ssRNA) [Id_ii_S1_P4E.3_K4.2_C4.2_[C-2A]_[T-1A]_H4.2_A4.1_F4.1_T4.2_[G10C]_[T11G]] | 163
11 | UCUCUUCAUAUAUAUUAAUUCUCUU (ssRNA) [Id_ii_S1_P4E.3_K4.2_C4.2_[T-1A]_H4.2_A4.1_F4.1_T4.2_[G10A]] | 36.3
12 | UCUCUUCCUAUAUAUUAUCUCUCUU (ssRNA) [Id_ii_S1_P4E.3_K4.2_C4.2_[T-1C]_H4.2_A4.1_F4.1_T4.2_[G10T]_[T11C]] | 18.5
13 | UCUCUUCGUAUAUAUUAAGUCUCUU (ssRNA) [Id_ii_S1_P4E.3_K4.2_C4.2_[T-1G]_H4.2_A4.1_F4.1_T4.2_[G10A]_[T11G]] | 101
14 | UCUCUUCGUAUAUAUUAACUCUCUU (ssRNA) [Id_ii_S1_P4E.3_K4.2_C4.2_[T-1G]_H4.2_A4.1_F4.1_T4.2_[G10A]_[T11C]] | 29.9
15 | UCUCUUCCUAUAUAUUACGUCUCUU (ssRNA) [Id_ii_S1_P4E.3_K4.2_C4.2_[T-1C]_H4.2_A4.1_F4.1_T4.2_[G10C]_[T11G]] | 32.8
16 | UCUCUUAAUAUAUAUUACUUCUCUU (ssRNA) [Id_ii_S1_P4E.3_K4.2_C4.2_[C-2A]_[T-1A]_H4.2_A4.1_F4.1_T4.2_[G10C]] | 56.4

Row | Binder | Kd [nM]
17 | UCUCUUAAUAUAUAUUAUCUCUCUU (ssRNA) [Id_ii_S1_P4E.3_K4.2_C4.2_[C-2A]_[T-1A]_H4.2_A4.1_F4.1_T4.2_[G10T]_[T11C]] | 79.9
18 | UCUCUUCAUAUAUAUUAUCUCUCUU (ssRNA) [Id_ii_S1_P4E.3_K4.2_C4.2_[T-1A]_H4.2_A4.1_F4.1_T4.2_[G10T]_[T11C]] | 25
19 | UCUCUUCGUAUAUAUUAAAUCUCUU (ssRNA) [Id_ii_S1_P4E.3_K4.2_C4.2_[T-1G]_H4.2_A4.1_F4.1_T4.2_[G10A]_[T11A]] | 51.6
20 | UCUCUUCGUAUAUAUUAUUUCUCUU (ssRNA) [Id_ii_S1_P4E.3_K4.2_C4.2_[T-1G]_H4.2_A4.1_F4.1_T4.2_[G10T]] | 21.9
21 | UCUCUUUGUGUACUAUCUCUU (ssRNA) [Ib_S1_P4E.1_K4.1_C4.1_H4.1_[A4G]_A4.1_[T7C]_F4.1_T4.1] | 6.14
22 | UCUCUUACUAUAUAUUACUUCUCUU (ssRNA) [Id_ii_S1_P4E.3_K4.2_C4.2_[C-2A]_[T-1C]_H4.2_A4.1_F4.1_T4.2_[G10C]] | 26.2
23 | UCUCUUCAUAUAUAUUAACUCUCUU (ssRNA) [Id_ii_S1_P4E.3_K4.2_C4.2_[T-1A]_H4.2_A4.1_F4.1_T4.2_[G10A]_[T11C]] | 39.7
24 | UCUCUUAUUAUAUAUUAUGUCUCUU (ssRNA) [Id_ii_S1_P4E.3_K4.2_C4.2_[C-2A]_H4.2_A4.1_F4.1_T4.2_[G10T]_[T11G]] | 18.8
25 | UCUCUUUGUCUUUUAUCUCUU (ssRNA) [Ib_S1_P4E.1_K4.1_C4.1_H4.1_[A4C]_A4.1_[A6T]_F4.1_T4.1] | 333
26 | UCUCUUCAUAUAUAUUAUUUCUCUU (ssRNA) [Id_ii_S1_P4E.3_K4.2_C4.2_[T-1A]_H4.2_A4.1_F4.1_T4.2_[G10T]] | 21.2
27 | UCUCUUCCUAUAUAUUAUUUCUCUU (ssRNA) [Id_ii_S1_P4E.3_K4.2_C4.2_[T-1C]_H4.2_A4.1_F4.1_T4.2_[G10T]] | 26.9
28 | UCUCUUACUAUAUAUUAACUCUCUU (ssRNA) [Id_ii_S1_P4E.3_K4.2_C4.2_[C-2A]_[T-1C]_H4.2_A4.1_F4.1_T4.2_[G10A]_[T11C]] | 33
29 | UCUCUUAAUAUAUAUUACCUCUCUU (ssRNA) [Id_ii_S1_P4E.3_K4.2_C4.2_[C-2A]_[T-1A]_H4.2_A4.1_F4.1_T4.2_[G10C]_[T11C]] | 76.2
30 | UCUCUUACUAUAUAUUAUGUCUCUU (ssRNA) [Id_ii_S1_P4E.3_K4.2_C4.2_[C-2A]_[T-1C]_H4.2_A4.1_F4.1_T4.2_[G10T]_[T11G]] | 22.5
31 | UCUCUUCCUAUAUAUUACUUCUCUU (ssRNA) [Id_ii_S1_P4E.3_K4.2_C4.2_[T-1C]_H4.2_A4.1_F4.1_T4.2_[G10C]] | 20.1
